Data: the supplement of paper PMC10567573

B1: ZNF24 (parent)
chain: YGETCFPKGRFERKRNPSRKKQHI
B2: ATL3 (parent)
chain: HFKKTKKMGGKDFSFRYQQELEEE

Variants of: B1
Test: protein stability index of a GFP-peptide fusion (GPS, HEK-293T) (PSI 1-6); higher = more stable
Settings: c terminus: a fixed tail appended
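Also: lentivirally expressed fusions sorted by FACS into six bins by GFP to DsRed ratio, PSI derived from sequencing read proportions per bin multiplied by bin number.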

Row | Variant | protein stability index
1 | KGETCFPKGRFERKRNPSRKKQHI | 3.75
2 | IGETCFPKGRFERKRNPSRKKQHI | 3.74
3 | AGETCFPKGRFERKRNPSRKKQHI | 4.36
4 | NGETCFPKGRFERKRNPSRKKQHI | 4.4
5 | CGETCFPKGRFERKRNPSRKKQHI | 3.45
6 | EGETCFPKGRFERKRNPSRKKQHI | 4.46
7 | GGETCFPKGRFERKRNPSRKKQHI | 4.63
8 | HGETCFPKGRFERKRNPSRKKQHI | 4.11
9 | LGETCFPKGRFERKRNPSRKKQHI | 3.9
10 | DGETCFPKGRFERKRNPSRKKQHI | 4.25
11 | FGETCFPKGRFERKRNPSRKKQHI | 1.9
12 | MGETCFPKGRFERKRNPSRKKQHI | 3.99

Variants of: B2
Test: as above
Settings: c terminus: a fixed tail appended

Row | Variant | protein stability index
13 | HFKKTKKMGGKDFSFRYQQELTEE | 2.03
14 | HFKKTKKMGGKDFSFRYQQELSEE | 1.8
15 | HFKKTKKMGGKDFSFRYQQELMEE | 1.8
16 | HFKKTKKMGGKDFSFRYQQELQEE | 1.59
17 | HFKKTKKMGGKDFSFRYQQELFEE | 1.85
18 | HFKKTKKMGGKDFSFRYQQELYEE | 2.15
19 | HFKKTKKMGGKDFSFRYQQELIEE | 1.79
20 | HFKKTKKMGGKDFSFRYQQELWEE | 1.3
21 | HFKKTKKMGGKDFSFRYQQELGEE | 2.5
22 | HFKKTKKMGGKDFSFRYQQELDEE | 2.2
23 | HFKKTKKMGGKDFSFRYQQELLEE | 1.99
24 | HFKKTKKMGGKDFSFRYQQELKEE | 3.18
25 | HFKKTKKMGGKDFSFRYQQELHEE | 2.83
26 | HFKKTKKMGGKDFSFRYQQELVEE | 2.41
27 | HFKKTKKMGGKDFSFRYQQELNEE | 1.72
28 | HFKKTKKMGGKDFSFRYQQELPEE | 3.31
29 | HFKKTKKMGGKDFSFRYQQELCEE | 3.15
30 | HFKKTKKMGGKDFSFRYQQYLEEE | 3.14
31 | HFKKTKKMGGKDFSFRYQQHLEEE | 3.98
32 | HFKKTKKMGGKDFSFRYQQKLEEE | 4.17
33 | HFKKTKKMGGKDFSFRYQQNLEEE | 3.16

Row | Variant | protein stability index
34 | HFKKTKKMGGKDFSFRYQQILEEE | 3.47
35 | HFKKTKKMGGKDFSFRYQQVLEEE | 2.51
36 | HFKKTKKMGGKDFSFRYQQWLEEE | 2
37 | HFKKTKKMGGKDFSFRYQQMLEEE | 3.43
38 | HFKKTKKMGGKDFSFRYQQTLEEE | 3.31
39 | HFKKTKKMGGKDFSFRYQQQLEEE | 2.91
40 | HFKKTKKMGGKDFSFRYQQSLEEE | 3.94
41 | HFKKTKKMGGKDFSFRYQQRLEEE | 3.96
42 | HFKKTKKMGGKDFSFRYQQPLEEE | 3.22
43 | HFKKTKKMGGKDFSFRYQQGLEEE | 3.11
44 | HFKKTKKMGGKDFSFRYQQELEED | 2.28
45 | HFKKTKKMGGKDFSFRYQQELEEM | 1.81
46 | HFKKTKKMGGKDFSFRYQQELEEQ | 2.08
47 | HFKKTKKMGGKDFSFRYQQELEER | 3.35
48 | HFKKTKKMGGKDFSFRYQQELEEY | 1.54
49 | HFKKTKKMGGKDFSFRYQQELEES | 2.85
50 | HFKKTKKMGGKDFSFRYQQELEEW | 1.9
51 | HFKKTKKMGGKDFSFRYQQELEEA | 2.68
52 | HFKKTKKMGGKDFSFRYQQELEEP | 3.69
53 | HFKKTKKMGGKDFSFRYQQELEET | 2.39
54 | HFKKTKKMGGKDFSFRYQQELEEG | 2.63

Row | Variant | protein stability index
55 | HFKKTKKMGGKDFSFRYQQELEEF | 2.01
56 | HFKKTKKMGGKDFSFRYQQELEEN | 3.49
57 | HFKKTKKMGGKDFSFRYQQELEEK | 3.43
58 | HFKKTKKMGGKDFSFRYQQELEEI | 2.16
59 | HFKKTKKMGGKDFSFRYQQELEEC | 2.74
60 | HFKKTKKMGGKDFSFRYQQELEEH | 3.13
61 | HFKKTKKMGGKDFSFRYQQELEEV | 3.28
62 | HFKKTKKMGGKDFSFRYQQEEEEE | 3.19
63 | HFKKTKKMGGKDFSFRYQQEKEEE | 3.3
64 | HFKKTKKMGGKDFSFRYQQENEEE | 4.27
65 | HFKKTKKMGGKDFSFRYQQEVEEE | 2.72
66 | HFKKTKKMGGKDFSFRYQQEYEEE | 1.4
67 | HFKKTKKMGGKDFSFRYQQEIEEE | 2.98
68 | HFKKTKKMGGKDFSFRYQQECEEE | 2.1
69 | HFKKTKKMGGKDFSFRYQQEDEEE | 4.71
70 | HFKKTKKMGGKDFSFRYQQEQEEE | 2.4
71 | HFKKTKKMGGKDFSFRYQQEFEEE | 1.53
72 | HFKKTKKMGGKDFSFRYQQESEEE | 4
73 | HFKKTKKMGGKDFSFRYQQEPEEE | 4.57
74 | HFKKTKKMGGKDFSFRYQQETEEE | 4.24
75 | HFKKTKKMGGKDFSFRYQQEREEE | 2.46

Row | Variant | protein stability index
76 | HFKKTKKMGGKDFSFRYQQEHEEE | 2.44
77 | HFKKTKKMGGKDFSFRYQQEMEEE | 1.53
78 | HFKKTKKMGGKDFSFRYQQELEME | 2.61
79 | HFKKTKKMGGKDFSFRYQQELETE | 2.55
80 | HFKKTKKMGGKDFSFRYQQELEIE | 1.97
81 | HFKKTKKMGGKDFSFRYQQELEFE | 2.27
82 | HFKKTKKMGGKDFSFRYQQELEQE | 1.81
83 | HFKKTKKMGGKDFSFRYQQELEGE | 1.88
84 | HFKKTKKMGGKDFSFRYQQELELE | 2.22
85 | HFKKTKKMGGKDFSFRYQQELENE | 2.67
86 | HFKKTKKMGGKDFSFRYQQELEKE | 2.46
87 | HFKKTKKMGGKDFSFRYQQELECE | 3.01
88 | HFKKTKKMGGKDFSFRYQQELEHE | 2.02
89 | HFKKTKKMGGKDFSFRYQQELEPE | 4.12
90 | HFKKTKKMGGKDFSFRYQQELEDE | 2.42
91 | HFKKTKKMGGKDFSFRYQQELEAE | 2.2
92 | HFKKTKKMGGKDFSFRYQQELESE | 2.2
93 | HFKKTKKMGGKDFSFRYQQELEVE | 2.27
94 | HFKKTKKMGGKDFSFRYQQELEYE | 1.71
